# Source: patent publication US20080305097A1, “Use of Protease or a Protease Inhibitor for the Manufacture of Medicaments” (YEDA RESEARCH AND DEVELOPMENT CO., LTD., priority 2004, published 2008)
# B1: G-CSF: granulocyte colony-stimulating factor (Filgrastin, Roche) (protein, UniProt P09919 31-207, looked up)
# Granulocyte …: TPLGPASSLPQSFLLKCLEQVRKIQGDGAALQEKLVSECATYKLCHPEELVLLGHSLGIPWAPLSSCPSQALQLAGCLSQLHSGLFLYQGLLQALEGISPELGPTLDTLQLDVADFATTIWQQMEELGMAPALQPTQGAMPAFASAFQRRAGGVLVASHLQSFLEVSYRVLRHLAQP
# modifications: filgrastim
# B2: CTK: cathepsin K, lysosomal cysteine protease, the major osteoclast bone resorbing enzyme (protein, UniProt P43235 115-329, looked up)
# Cathepsin K: APDSVDYRKKGYVTPVKNQGQCGSCWAFSSVGALEGQLKKKTGKLLNLSPQNLVDCVSENDGCGGGYMTNAFQYVQKNRGIDSEDAYPYVGQEESCMYNPTGKAAKCRGYREIPEGNEKALKRAVARVGPVSVAIDASLTSFQFYSKGVYYDESCNSDNLNHAVLAVGYGIQKGNKHWIIKNSWGENWGNKGYILMARNKNNACGIANLASFPKM
# B3: RANKL: Receptor Activator of NK-kappaB Ligand, soluble murine, osteoclast differentiating factor (protein, UniProt O35235 70-316, looked up)
# extracellular domain: YFRAQMDPNRISEDSTHCFYRILRLHENADLQDSTLESEDTLPDSCRRMKQAFQGAVQKELQHIVGPQRFSGAPAMMEGSWLDVAQRGKPEAQPFAHLTINAASIPSGSHKVTLSSWYHDRGWAKISNMTLSNGKLRVNQDGFYYLYANICFRHHETSGSVPTDYLQLMVYVVKTSIKIPSSHNLMKGGSTKNWSGNSEFHFYSINVGGFFKLRAGEEISIQVSNPSLLDPDQDATYFGAFKVQDID
# modifications: extracellular domain
# How the values were obtained:
# SDF-1 [1] = experiment: SDF-1 transcription (RT-PCR) and secretion (ELISA) in primary calvaria osteoblasts; format: cell-based, mouse; conditions: 50 ng/ml, 3 days
# Protocol: Osteoblast were incubated with G-CSF, HGF or remained untreated, and SDF-1 transcription and expression was determined in such cells (FIG. 9).
# Primary calvaria osteoblasts were cultured for 3 days in the presence of SDF-1 (PeproTech, 100 […]), HGF (PeproTech, 50 ng/ml) and G-CSF (Filgrastin, Roche, 50 ng/ml). Conditioned media was collected to determine SDF-1 concentration by ELISA, as described in Example 2. Determination of SDF-1 transcription and expression as in Example 2.
# [2] = test system: TRAP+ multinucleated osteoclasts; experiment: Osteoblast/BM co-culture, TRAP+ multinucleated osteoclast count; format: cell-based, mouse; conditions: G-CSF 50 ng/ml, HGF 50 ng/ml, SDF-1 10 and 100 ng/ml; 5 days
# Protocol: Osteoclast precursors are stimulated by cell-cell contact with osteoblasts to become activated multinucleated TRAP+ bone resorbing cells. To obtain active osteoclasts in vitro, a clvarian osteoblasts are incubated with Vitamine D3 and PG2E which potentiate their M-CSF production and RANKL expression, needed for osteoclast activation. BM cells which contain osteoclast precursors are seeded then on the osteoblast monolayer, for 5 days, to obtain active multinucleated osteoclasts.
# A co-culture of primary mouse osteoblasts and BM (containing ocl precursors as detailed above) was seeded in the presence of G-CSF (50 ng/ml), HGF (50 ng/ml), or SDF-1 (10 and 100 ng/ml). Five days later, TRAP+ multinucleated osteoclasts in the cultures were stained (as described in Example 1) and counted 5 days later.
# SDF-1 [3] = experiment: Migration of Pre B ALL G2 cells towards CTK treated SDF-1; format: cell-based; conditions: SDF-1 125 ng, CTK 1 mcg/ml, about 16 hours, 37° C.
# Protocol: We employed an in-vitro functional assay for SDF-1 (Example 10) to check the effect of CTK on SDF-1 activity. The assay consisted on migration of leukemic Pre B ALL G2 (cells which migrate very well to relative low concentrations of SDF-1, Spiegel, Blood, 2004) to SDF-1.
# In brief, SDF-1 (125 ng) was incubated with CTK ([…]) in a 100 ul reaction volume adjusted with PBS, for about 16 hours in 37° C. In some samples, protease inhibitor (PI, 1 ul, Sigma, containing the cystein protease inhibitor E-64) was preincubated with CTK for 1.5 hrs, in 37° C., before SDF-1 was added. The leukemic Pre B ALL G2 cells were loaded on transwells and migration towards CTK treated as well as non treated SDF-1 was measured.
# 125 ng/ml SDF-1α was kept untreated or incubated with CTK (1 mcg/ml) for overnight in 37° C. To inhibit enzymatic activity of CTK, 1 and 2 mcl of protease inhibitor (Sigma) was incubated with CTK for 1.5 h before adding to SDF-1. RPMI (600 μl) supplemented with 10% FCS was added with tested SDF-1 to the lower chamber of a Costar 24-wells transwell (Corning (pore size 5 μm), NY). 1×10^5 pre B ALL G2 cells in 100 μl medium were loaded to the upper chamber and were allowed to migrate for 4 hours at 37° C. Migrating cells were collected from the lower chamber and counted for 60 seconds using a FACSCalibur. Control spontaneous migration was performed without SDF-1α in the lower chamber.
# SDF-1 [4] = experiment: SDF-1 cleavage by CTK, SDS-PAGE and blot with anti SDF-1 polyclonal Ab or K15C; format: biochemical; conditions: SDF-1 20 ng, CTK 1.76 ug/ml
# Protocol: SDF-1 (20 ng) was incubated with CTK (1.76 ug/ml) for 0, 15, 30, and 60 minutes at 37OC. Samples were subjected than to SDS-PAGE, blotted and detected with anti SDF-1 polyclonal Ab or with the monoclonal Ab K15C, which specifically binds the amino terminal part of the chemokine.
# We further explored the kinetics of SDF-1 cleavage by CTK at a time scale of minutes (FIG. 14). Samples of SDF-1 (20 ng) were incubated with CTK (1.76 ug/ml) for 0, 15, 30, 60, 120 and 240 minutes at 37° C. After collection, the samples were subjected to SDS-PAGE and blotted and detected with anti SDF-1 polyclonal Ab (R&D) or with the monoclonal Ab K15C which specifically binds the amino terminal part of the chemokine.
# MMP-9 = MMP-9 in BM after RANKL, zymography; format: in vivo, Balb/c mice; conditions: RANKL 2 daily subcutaneous injections of 5 mcg for 3 days
# Protocol: (§1) Balb/c mice were injected with soluble murine RANKL (2 injections per day, 5 mcg per subcutaneous injection). Bones of treated mice were stained for TRAP (in red) indicating mature activated osteoclasts (A). Levels of MMP-9 in BM fluids were determined by zymography assay (B). The expression of CTK mRNA was detected by RT-PCR (C).
# (§2) Mice were administrated with RANKL as follows: 2 daily subcutaneous injections of 5 mcg for 3 days and after two more days in the absence of RANKL. The following parameters were monitored in both treated and control untreated mice: TRAP+ activated osteoclasts (FIG. 11A), induction of osteoclast proteases MMP-9 (FIG. 11B) and CTK (FIG. 11C) in the BM and mobilization (FIG. 12).
# progenitors = experiment: Progenitor mobilization by RANKL, semisolid cultures; format: in vivo, Balb/c mice; conditions: RANKL 2 daily subcutaneous injections of 5 mcg for 3 days
# Protocol: (A) Progenitor mobilization assayed in semisolid cultures, induced by SDF-1 (10 mcg), HGF (1.5 mcg) injected for 5 days and sRANKL (2×5 mcg) injected for the first 3 days. (B) RANKL induced mobilization is inhibited by administration of anti CXCR4 antibodies (10 mcg) and MMP2/9 inhibitor (100 mcg), injected for the last 2 days. (C) Osteoclast precursors in the BM of treated mice were assayed by culturing BM cells for 4 days with M-CSF and sRANKL, followed by TRAP staining to detect mature active osteoclasts.
# as §2
# CTK = CTK expression in BM after RANKL, RT-PCR; format: in vivo, Balb/c mice; conditions: RANKL 2 daily subcutaneous injections of 5 mcg for 3 days
# Protocol: as §1, §2
# TRAP+ active osteoclasts = experiment: In vivo osteoclast activation by RANKL, TRAP staining; design: species or system Balb/c mice; conditions: RANKL 2 daily subcutaneous injections of 5 mcg for 3 days
# Protocol: as §1, §2
molecule,measurement,setting,value
B1,SDF-1 transcription in osteoblasts,SDF-1 [1],induce
same,SDF-1 production in osteoblasts,SDF-1 [1]; conditioned media ELISA,induce
same,level of activated TRAP+ osteoclasts,[2],significantly increased
B2,chemotactic activity of SDF-1 after incubation with CTK,SDF-1 [3],abolished
same,kinetics of SDF-1 cleavage by CTK,"SDF-1 [4]; 0-240 minutes, 37° C.",fast and site specific SDF-1 cleavage
same,site of SDF-1 cleavage by CTK,SDF-1 [4]; detection with K15C (amino terminal part),N-terminally cleaved
B3,MMP-9 expression in the bone marrow,MMP-9,induction
same,mobilization of progenitors,progenitors,mobilization of progenitors
same,CTK expression in the bone marrow,CTK,induction
same,formation of TRAP+ active osteoclasts,TRAP+ active osteoclasts,induced formation of TRAP+ active osteoclasts along the endosteum
